Measured values as given in patent US10294520B2, “Nicotiana nucleic acid molecules and uses thereof” (U.S. Smokeless Tobacco Company LLC, priority 2004, dated 2019).

T1: tobacco nicotine demethylase (D121-AA8) (Nicotiana tabacum, UniProt Q38Q87)
T1 sequence (Q38Q87 with tags, fused parts or gaps): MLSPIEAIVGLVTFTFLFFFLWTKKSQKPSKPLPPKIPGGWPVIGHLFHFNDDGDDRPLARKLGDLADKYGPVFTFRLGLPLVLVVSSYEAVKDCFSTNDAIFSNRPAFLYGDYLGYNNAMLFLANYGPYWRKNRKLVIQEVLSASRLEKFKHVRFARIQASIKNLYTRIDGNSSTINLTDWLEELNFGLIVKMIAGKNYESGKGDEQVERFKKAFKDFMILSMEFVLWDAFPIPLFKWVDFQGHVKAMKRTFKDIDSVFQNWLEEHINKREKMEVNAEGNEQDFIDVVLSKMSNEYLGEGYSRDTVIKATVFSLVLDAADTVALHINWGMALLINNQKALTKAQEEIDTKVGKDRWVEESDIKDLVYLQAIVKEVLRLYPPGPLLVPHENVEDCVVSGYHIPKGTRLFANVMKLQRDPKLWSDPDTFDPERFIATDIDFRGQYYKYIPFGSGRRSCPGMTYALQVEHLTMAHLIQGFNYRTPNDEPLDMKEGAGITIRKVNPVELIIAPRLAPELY

T2: nicotine demethylase activity in the transformed yeast cells (Nicotiana tabacum, UniProt Q38Q87)
T2 construct: expressed in transfected cells; host or cells: Saccharomyces cerevisiae WAT11 transformed with pYeDP60-p450 cDNA plasmid, galactose-induced culture
T2 sequence (Q38Q87 with tags, fused parts or gaps): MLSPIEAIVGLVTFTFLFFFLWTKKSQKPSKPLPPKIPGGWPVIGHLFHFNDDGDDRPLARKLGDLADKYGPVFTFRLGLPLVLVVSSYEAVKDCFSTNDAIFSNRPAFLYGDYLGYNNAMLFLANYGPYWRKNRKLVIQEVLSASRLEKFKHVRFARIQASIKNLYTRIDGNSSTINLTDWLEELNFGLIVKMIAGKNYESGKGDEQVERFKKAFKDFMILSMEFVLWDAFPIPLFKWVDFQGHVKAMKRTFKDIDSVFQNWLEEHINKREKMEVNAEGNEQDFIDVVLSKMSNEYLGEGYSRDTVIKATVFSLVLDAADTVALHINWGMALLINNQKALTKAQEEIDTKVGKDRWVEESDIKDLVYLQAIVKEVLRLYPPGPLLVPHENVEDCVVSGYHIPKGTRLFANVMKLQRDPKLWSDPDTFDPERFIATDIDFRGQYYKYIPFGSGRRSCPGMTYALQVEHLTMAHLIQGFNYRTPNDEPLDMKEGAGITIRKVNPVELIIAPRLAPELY


What was measured:
[1] = target: T1, tobacco nicotine demethylase (D121-AA8); assay: Nicotine demethylase activity assay with yeast microsomal preparations; details: for nornicotine produced from the demethylation of nicotine (HPLC and LSC): microsomal samples from yeast cells expressing the p450
Protocol: After induction by galactose for 20 hours, yeast cells were collected by centrifugation and washed twice with TES-M buffer (50 mM Tris-HCl, pH 7.5, 1 mM EDTA, 0.6 M sorbitol, 10 mM 2-mercaptoethanol). The pellet was resuspended in extraction buffer (50 mM Tris-HCl, pH 7.5, 1 mM EDTA, 0.6 M sorbitol, 2 mM 2-mercaptoethanol, 1% bovine serum album, Protease Inhibitor Cocktail (Roche) at 1 tablet/50 ml). Cells were then broken with glass beads (0.5 mm in diameter, Sigma) and the cell extract was centrifuged for 20 min at 20,000×g to remove cellular debris. The supernatant was subjected to ultracentrifugation at 100,000×g for 60 min and the resultant pellet contained the microsomal fraction. The microsomal fraction was suspended in TEG-M buffer (50 mM Tris-HCl, pH 7.5, 1 mM EDTA, 20% glycerol and 1.5 mM 2-mercaptoethanol) at protein concentration of 1 mg/mL. Microsomal preparations were stored in a liquid nitrogen freezer until use.
Nicotine demethylase activity assays with yeast microsomal preparations were performed. […] Chlorpromazine (CPZ) and oxidized cytochrome c (cyt. C), both P450 inhibitors, were purchased from Sigma. […] NADPH was omitted for control incubation. The routine enzyme assay included microsomal proteins (around 1 mglrnl), 6 mM NADPH, and 55 μM ^14C labeled nicotine. […] C, when used, was 1 mM and 100 μM, respectively. The reaction was carried at 25° C. for 1 hour and was stopped with the addition of 300 μM methanol to each 25 μl reaction mixture. After centrifugation, 20 μl of the methanol extract was separated with a reverse-phase High Performance Liquid Chromatography (HPLC) system (Agilent) using an Inertsil ODS-3 3μ (150×4.6 mm) chromatography column from Varian. The isocratic mobile phase was the mixture of methanol and 50 mM potassium phosphate buffer, pH 6.25, with ratio of 60:40 (v/v) and the flow rate was 1 ml/min. The nornicotine peak, as determined by comparison with authentic non-labeled nornicotine, was collected and subjected to 2900 tri-carb Liquid ScintlDation Counter (LSC) (Perkin Elmer) for quantification. The activity of nicotine demethylase is calculated based on the production of ^14C labeled nornicotine over 1 hour incubation.

[2] = target: T2, nicotine demethylase activity in the transformed yeast cells; assay: In vivo enzyme assay: feeding transformed yeast culture with 14C labeled nicotine; format: cell-based; details: WAT11 yeast, galactose-induced culture, 55 μM 14C nicotine, 6 hours
Protocol: Single yeast colonies were used to inoculate 30 mL SGI media (5 g/L bactocasamino acids, 6.7 g/L yeast nitrogen base without amino acids, 20 g/L glucose, 40 mg/L DL-tryptophan) and grown at 30° C. for about 24 hours. An aliquot of this culture was diluted 1:50 into 1000 mL of YPGE media (10 g/L yeast extract, 20 g/L bacto peptone, 5 g/L glucose, 30 ml/L ethanol) and grown until glucose was completely consumed as indicated by the colorimetric change of a Diastix urinalysis reagent strip (Bayer, Elkhart, Ind.). Induction of cloned P450 was initiated by adding DL-galactose to a final concentration of 2%. The cultures were grown for an additional 20 hours before used for in vivo activity assay or for microsome preparation.
WAT11 yeast cells expressing pYeDP60-CYP71D20 (a p450 catalyzing the hydroxylation of 5-epi-aristolochene and 1-deoxycapsidiol in Nicotiana tabacum) were used as control for the p450 expression and enzyme activity assays.
The nicotine demethylase activity in the transformed yeast cells were assayed by feeding of yeast culture with DL-Nicotine (Pyrrolidine-2-^14C). ^14C labeled nicotine (54 mCi/mmol) was added to 75 μl of the galactose-induced culture for a final concentration of 55 μM. […] After spinning, 20 μl of the methanol extract was separated with an rp-HPLC and the nornicotine fraction was quantitated by LSC.

effect on nicotine demethylase activity of D121-AA8 microsomes ([1]; Chlorpromazine 1 mM, incubated for 1 hour) | Molecule | nornicotine produced from the demethylation of nicotine (HPLC and LSC) [1] | Demethylase activity, Microsomes + 100 μM cytochrome C ([1]; yeast microsomes with 100 μM oxidized cytochrome c, n = 3) | Demethylase activity, Microsomes + 1 mM chlorpromazine ([1]; yeast microsomes with 1 mM chlorpromazine, n = 3) | Demethylase activity, Microsomes ([1]; yeast microsomes, 6 mM NADPH, 55 μM 14C labeled nicotine, 25° C., 1 hour, n = 12) | conversion of nicotine to nornicotine in yeast culture [2]
decreased significantly | CN(C)CCCN1c2ccccc2Sc2ccc(Cl)cc21 [Chlorpromazine, reference compound] | – | – | – | – | –
– | Control (CYP71D20): a p450 catalyzing the hydroxylation of 5-epi-aristolochene and 1-deoxycapsidiol in Nicotiana tabacum, used as control (protein, UniProt Q94FM7 1-504, looked up) 5-epiaristolochene …: MQFFSLVSIFLFLSFLFLLRKWKNSNSQSKKLPPGPWKIPILGSMLHMIGGEPHHVLRDLAKKYGPLMHLQLGEISAVVVTSRDMAKEVLKTHDVVFASRPKIVAMDIICYNQSDIAFSPYGDHWRQMRKICVMELLNAKNVRSFSSIRRDEVVRLIDSIRSDSSSGELVNFTQRIIWFASSMTCRSAFGQVLKGQDIFAKKIREVIGLAEGFDVVDIFPTYKFLHVLSGMKRKLLNAHLKVDAIVEDVINEHKKNLAAGKSNGALGGEDLIDVLLRLMNDTSLQFPITNDNIKAVIVDMFAAGTETSSTTTVWAMAEMMKNPSVFTKAQAEVREAFRDKVSFDENDVEELKYLKLVIKETLRLHPPSPLLVPRECREDTDINGYTIPAKTKVMVNVWALGRDPKYWDDAESFKPERFEQCSVDFFGNNFEFLPFGGGRRICPGMSFGLANLYLPLAQLLYHFDWKLPTGIMPRDLDLTELSGITIARKGGLYLNATPYQPSRE | did not show any nornicotine conversion formation | Not Detected | Not Detected | Not Detected | did not convert nicotine to nornicotine
– | D208-AD9: test p450 from a full-length tobacco clone, expressed in yeast (protein, listed as Nicotiana tabacum) MLSPIEAIVGLVTFTFLFFFLWTKKSQKPSKPLPPKIPGGWPVIGHLFHFNDDGDDRPLARKLGDLADKYGPVFTFRLGLPLVLVVSSYEAVKDCFSTNDAIFSNRPAFLYGDYLGYNNAMLFLANYGPYWRKNRKLVIQEVLSASRLEKFKHVRFARIQASMKNLYTRIDGNSSTINLTDWLEELNFGLIVKMIAGKNYESGKGDEQVERFKKAFKDFMILSMEFVLWDAFPIPLFKWVDFQGHVKAMKRTFKDIDSVFQNWLEEHINKREKMEVNAEGNEQDFIDVVLSKMSNEYLGEGYSRDTVIEATVFSLVLDAADTVALHINWGMALLINNQKALTKAQEEIDTKVCKDRWVEESDIKDLVYLQAIVKEVLRLYPPGPLLVPHENVEDCVVSGYHIPKGTRLFANVMKLQRDPKLWSDPDTFDPERFIATDIDFRGQYYKYIPFGPGRRSCPGMTYALQVEHLTMAHLIQGFNYRTPNDEPLDMKEGAGITIRKVNPVELIIAPRLAPELY | did not show any nornicotine conversion formation | – | – | – | –
